From patent US20260139007A1 (SANFORD BURNHAM PREBYS MEDICAL DISCOVERY INSTITUTE, published 2026) come the findings set out here.

Numbered stars: 1 amine (or outer) side, 2 acyl side, 3 side chain; on linkers, the order of the positions; unused ones are H or OH. Bridge positions count the residues as written; N and C are the ends. Square brackets hold non-standard residues; d marks the D form. Side chains are listed from the residue outwards. Ends that are not written are not given here. * marks the point of attachment. γGlu = O=C(O)[C@H](CCC(=O)[*:2])N[*:1]; βAsp = O=C(O)[C@H](CC(=O)[*:2])N[*:1]; Palmitoyl = CCCCCCCCCCCCCCCC(=O)*; Lauroyl = CCCCCCCCCCCC(=O)*; βAla = NCCC(=O)O

In this experiment the target is T1, EphA4 Fc (human EphA4 Fc, #CJ75, Novoprotein, or mouse EphA4 Fc, #641-A4, R&D Systems/BioTechne) (human or mouse, UniProt P54764 20-547).
T1 construct: extracellular domain; bought reagents; also called EphA4 extracellular domain fused to the Fc portion of an antibody; not shown: Fc portion of an antibody
T1 sequence (P54764 20-547): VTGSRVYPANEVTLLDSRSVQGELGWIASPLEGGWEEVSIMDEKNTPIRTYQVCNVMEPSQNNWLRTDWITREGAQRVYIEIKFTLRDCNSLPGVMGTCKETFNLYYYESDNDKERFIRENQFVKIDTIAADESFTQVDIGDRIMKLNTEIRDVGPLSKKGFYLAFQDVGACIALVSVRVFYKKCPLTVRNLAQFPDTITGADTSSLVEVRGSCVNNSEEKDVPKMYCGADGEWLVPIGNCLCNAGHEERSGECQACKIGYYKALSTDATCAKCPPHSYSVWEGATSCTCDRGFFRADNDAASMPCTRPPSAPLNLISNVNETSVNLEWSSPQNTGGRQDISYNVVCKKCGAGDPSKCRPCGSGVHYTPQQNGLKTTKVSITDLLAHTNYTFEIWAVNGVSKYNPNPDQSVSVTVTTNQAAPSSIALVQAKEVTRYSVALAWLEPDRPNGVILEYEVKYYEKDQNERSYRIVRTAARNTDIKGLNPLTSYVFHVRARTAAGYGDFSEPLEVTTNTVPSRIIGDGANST
The experiment can be described thus: competition ELISA, inhibition of ephrin-A5 AP binding to immobilized EphA4 Fc.

B1: APY-d3-PEG1 (peptide)
peptide: XPYCVYRXSWSCXXK
modifications: β-alanine at 1 and 8; disulfide bond Cys4-Cys12 (cyclic); 30 kDa methoxy-PEG joined through linker1 at the C-terminus (amide formation with 30 kDa methoxy-PEG succinimidyl carboxymethyl ester on precursor 1, βAPYCVYRβASWSCβAβAK-NH2, SEQ ID NO: 36)
notes: also called βAPYCVYRβASWSC-linker1-PEG
For B1, the 50% inhibitory concentration (IC50) came out at 180 nM.

B2: compound 19 (peptide)
peptide: XPYCVYRXSWSCGGKG
modifications: β-alanine at 1 and 8; palmitoyl-γGlu-γGlu on the side chain of the Lys of the C-terminal GGKG; C-terminal amide; disulfide bond Cys4-Cys12 (cyclic)
notes: also called peptide 19
As for B2, the half-inhibitory concentration (IC50) worked out at 160 nM.

B3: APY-d3-PEG2 (peptide)
peptide: XPYCVYRXSWSCXXK
modifications: β-alanine at 1 and 8; disulfide bond Cys4-Cys12 (cyclic); 30 kDa methoxy-PEG joined through linker2 at the C-terminus (amide formation with 30 kDa methoxy-PEG-(CH2)5COO-NHS on precursor 1, βAPYCVYRβASWSCβAβAK-NH2, SEQ ID NO: 36)
notes: also called βAPYCVYRβASWSC-linker2-PEG
For B3, the IC50 worked out at 83 nM.

B4: compound 11 (peptide)
peptide: [βAla]PYCVYK([γGlu-Lauroyl])[βAla]SWSC-NH2
modifications: disulfide 4-12; N-terminus assumed
SMILES: CCCCCCCCCCCC(=O)N[C@@H](CCC(=O)NCCCC[C@@H]1NC(=O)[C@H](Cc2ccc(O)cc2)NC(=O)[C@H](C(C)C)NC(=O)[C@@H](NC(=O)[C@H](Cc2ccc(O)cc2)NC(=O)[C@@H]2CCCN2C(=O)CCN)CSSC[C@@H](C(N)=O)NC(=O)[C@H](CO)NC(=O)[C@H](Cc2c[nH]c3ccccc23)NC(=O)[C@H](CO)NC(=O)CCNC1=O)C(=O)O
notes: also called peptide 11; βAPYCVYK(lauroyl-γE)βASWSC-NH2
As to B4, the IC50 is 84 nM.

B5: compound 20 (peptide)
peptide: [βAla]PYCVYR[βAla]SWSCGGGSK([γGlu-γGlu-Palmitoyl])G-NH2
modifications: disulfide 4-12; N-terminus assumed
SMILES: CCCCCCCCCCCCCCCC(=O)N[C@@H](CCC(=O)N[C@@H](CCC(=O)NCCCC[C@H](NC(=O)[C@H](CO)NC(=O)CNC(=O)CNC(=O)CNC(=O)[C@@H]1CSSC[C@H](NC(=O)[C@H](Cc2ccc(O)cc2)NC(=O)[C@@H]2CCCN2C(=O)CCN)C(=O)N[C@@H](C(C)C)C(=O)N[C@@H](Cc2ccc(O)cc2)C(=O)N[C@@H](CCCNC(=N)N)C(=O)NCCC(=O)N[C@@H](CO)C(=O)N[C@@H](Cc2c[nH]c3ccccc23)C(=O)N[C@@H](CO)C(=O)N1)C(=O)NCC(N)=O)C(=O)O)C(=O)O
notes: also called peptide 20
For B5, the IC50 was 190 nM.

B6: APY-d3-PEG3 (peptide)
peptide: XPYCVYRXSWSCXK
modifications: β-alanine at 1 and 8; disulfide bond Cys4-Cys12 (cyclic); 30 kDa methoxy-PEG joined at the C-terminus through an oxime linkage (APY-d3-βAla-glyoxyl with methoxy-PEG-CONH(CH2)2-ONH2)
notes: also called βAPYCVYRβASWSC-linker3-PEG
Molecule B6 had an IC50 of 15 nM.

B7: compound 17 (peptide)
peptide: [βAla]PYCVYK([γGlu-Palmitoyl])[βAla]SWSC-NH2
modifications: disulfide 4-12; N-terminus assumed
SMILES: CCCCCCCCCCCCCCCC(=O)N[C@@H](CCC(=O)NCCCC[C@@H]1NC(=O)[C@H](Cc2ccc(O)cc2)NC(=O)[C@H](C(C)C)NC(=O)[C@@H](NC(=O)[C@H](Cc2ccc(O)cc2)NC(=O)[C@@H]2CCCN2C(=O)CCN)CSSC[C@@H](C(N)=O)NC(=O)[C@H](CO)NC(=O)[C@H](Cc2c[nH]c3ccccc23)NC(=O)[C@H](CO)NC(=O)CCNC1=O)C(=O)O
notes: also called peptide 17; βAPYCVYK(palmitoyl-γE)βASWSC-NH2
The molecule B7 came in with an IC50 of 2300 nM.

B8: compound 10 (peptide)
peptide: [βAla]PYCVYK([βAsp-Lauroyl])[βAla]SWSC-NH2
modifications: disulfide 4-12; N-terminus assumed
SMILES: CCCCCCCCCCCC(=O)N[C@@H](CC(=O)NCCCC[C@@H]1NC(=O)[C@H](Cc2ccc(O)cc2)NC(=O)[C@H](C(C)C)NC(=O)[C@@H](NC(=O)[C@H](Cc2ccc(O)cc2)NC(=O)[C@@H]2CCCN2C(=O)CCN)CSSC[C@@H](C(N)=O)NC(=O)[C@H](CO)NC(=O)[C@H](Cc2c[nH]c3ccccc23)NC(=O)[C@H](CO)NC(=O)CCNC1=O)C(=O)O
notes: also called peptide 10; βAPYCVYK(lauroyl-βD)βASWSC-NH2
Take B8: the IC50 is 110 nM.
